This note sets out measurements from US20160340395, “POLYPEPTIDE TAGGING FUSIONS AND METHODS” (REGENTS OF THE UNIVERSITY OF MINNESOTA, published 2016).

One series deals with T1, RepB HUH domain (Streptococcus agalactiae, UniProt P13921 SEQ:1-132).
T1 chain: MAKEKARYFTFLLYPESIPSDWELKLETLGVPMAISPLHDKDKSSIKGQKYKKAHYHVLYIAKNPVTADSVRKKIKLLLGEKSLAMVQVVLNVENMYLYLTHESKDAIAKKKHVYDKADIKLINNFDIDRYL
As to the kind of experiment: covalent adduct by SDS-PAGE; 1 uM protein, 5 uM DNA, 30 min 37 C. The following applies: tags: N-terminal His6-SUMO; label: FAM. As for the experimental part:
(§1) The HUH endonuclease-based protein tags described herein allow one to orthogonally label proteins in cells.
(§2) Unless otherwise noted, gel-shift assays were performed in HUH buffer; 50 mM Hepes pH 8, 50 mM NaCl, 1 mM MgCl₂ and 1 mM MnCl₂, incubated at 37° C. for 15 minutes unless otherwise noted, and quenched with 4× loading buffer. The reactions were analyzed by either electrophoresis on 4-20% polyacrylamide gels stained with Coomassie Blue or Bio-Rad Stain-Free gels. For comparison of covalent adduct formation of SNAP and DCV, 25 pmol of SNAP/DCV proteins were mixed with 100 pmol respective DNA-oligo in SNAP/HUH buffer. 4×SDS loading buffer was added at indicated times to quench. SNAP buffer: 50 mM Hepes pH8, 50 mM NaCl, and 5 mM β-mercaptoethanol. Specificity reactions of HUH-proteins with each target-oligo were performed in HUH buffer with 150 mM NaCl.

For series [1], the target named is T2, GeneA* HUH (Y131H) (PhiX174, UniProt P03631 SEQ:1-340).
T2 chain: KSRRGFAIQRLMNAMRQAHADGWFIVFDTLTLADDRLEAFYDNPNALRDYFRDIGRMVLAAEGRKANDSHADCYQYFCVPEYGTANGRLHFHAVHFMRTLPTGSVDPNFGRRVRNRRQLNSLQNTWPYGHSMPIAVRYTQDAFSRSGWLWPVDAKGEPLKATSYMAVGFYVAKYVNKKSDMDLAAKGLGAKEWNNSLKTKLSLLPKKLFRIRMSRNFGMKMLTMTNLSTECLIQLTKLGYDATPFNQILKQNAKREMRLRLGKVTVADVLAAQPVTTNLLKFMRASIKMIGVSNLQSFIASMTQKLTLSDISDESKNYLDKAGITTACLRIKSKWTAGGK
The series can be described thus: no cross-reactivity in mixture. The following applies: tags: N-terminal His6-SUMO; label: Cy5.

In series [2] the target is T2, GeneA* HUH (Y131H). The series can be described thus: covalent adduct by SDS-PAGE. The conditions noted are these: tags: N-terminal His6-SUMO; label: FAM. As for the experimental part: The reaction time is extremely fast. […] Product is observed after a reaction time of only five minutes.
as §2

For series [3], the target named is T3, mMobA minimal relaxase domain (Escherichia coli, UniProt P07112 SEQ:1-186).
T3 chain: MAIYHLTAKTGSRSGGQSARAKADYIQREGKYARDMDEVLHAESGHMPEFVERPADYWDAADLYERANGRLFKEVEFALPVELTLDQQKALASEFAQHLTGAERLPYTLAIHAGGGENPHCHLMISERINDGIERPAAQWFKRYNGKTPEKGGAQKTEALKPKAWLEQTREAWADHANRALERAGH
The series can be described thus: covalent adduct by SDS-PAGE; 1 uM protein, 5 uM DNA, 30 min 37 C. The conditions noted are these: tags: N-terminal His6-SUMO; label: Cy3. On the procedure: as §1, §2

Turning to TGCTTCCGTACTACGACCCCCCA (ssDNA) [RepB target], the binding result with RepB HUH domain was “binds”.

As to AAGTATTACCAG (ssDNA) [PCV2 ori target], the binding result in the series with GeneA* HUH (Y131H) [1] is recorded as “no binding”. TCGACAACTTGATATTAATAACACTATAGAC (ssDNA) [GeneA target]: the binding result with GeneA* HUH (Y131H) [2] is on record as “binds”. For CCAGTTTCTCGAAGAGAAACCGGTAAATGCGCCCT (ssDNA) [mMobA target], the binding result in series [3] is “binds”.
